Assay results published in patent US7811992B2, “Anti-infarction molecules” (Stasys Technologies, Inc., priority 2002, dated 2010).
Like-named read-outs stand apart in the source and are kept apart here. Square brackets hold non-standard residues; d marks the D form. Side chains are listed from the residue outwards. Ends that are not written are not given here. Peptide text beside a SMILES is read from it. * marks the point of attachment. Acetyl(1-adamantyl) = O=C(CC12CC3CC(CC(C3)C1)C2)*; Hyp = O=C(O)[C@@H]1C[C@@H](O)CN1; 2Thi = N[C@@H](Cc1cccs1)C(=O)O; Nicotinoyl = O=C(c1cccnc1)*; Cbz = O=C(OCc1ccccc1)*

Experiments:
[1] = target: T1, human angiotensin AT2 receptor (Homo sapiens, UniProt P50052); settings: for % Inhibition ATII receptor: screened at 10 μM; for Activity/inhibition ATII binding assay: compounds screened at 10 μM, % inhibition of binding at the AT2 receptor; for inhibition at 10 µM: read-out: % Inhibition ATII receptor; for nH: reference data, Hill coefficient
T1 sequence (P50052 1-363): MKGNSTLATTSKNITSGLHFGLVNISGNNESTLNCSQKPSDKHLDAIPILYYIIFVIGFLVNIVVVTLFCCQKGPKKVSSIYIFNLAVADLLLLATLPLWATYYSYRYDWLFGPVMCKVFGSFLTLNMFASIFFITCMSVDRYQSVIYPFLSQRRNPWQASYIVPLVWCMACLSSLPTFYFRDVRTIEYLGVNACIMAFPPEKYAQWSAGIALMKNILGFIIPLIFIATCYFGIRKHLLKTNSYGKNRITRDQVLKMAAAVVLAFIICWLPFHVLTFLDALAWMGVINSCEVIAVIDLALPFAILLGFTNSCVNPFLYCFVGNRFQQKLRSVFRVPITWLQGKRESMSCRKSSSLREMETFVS
Protocol: HeLa cells stably transfected with a plasmid encoding the human angiotensin AT2 receptor were used to prepare membranes in modified Tris HCl pH 7.4 by standard techniques. […] Non-specific binding was estimated in the presence of 10 μM. […] Compounds were screened at 10 μM. The ATII binding studies were performed essentially like that disclosed in Whitebread, S. E. et al., Radioligand CGP42112A: a novel high affinity and high selective ligand for the characterization of angiotensin AT2 receptors.

Bradykinin B1 = target: T2, Bradykinin B1 (Homo sapiens, UniProt P46663); experiment: Receptor panel screen, ligand-receptor binding, FPAh 10 μM: Bradykinin B1
T2 sequence (P46663 1-353): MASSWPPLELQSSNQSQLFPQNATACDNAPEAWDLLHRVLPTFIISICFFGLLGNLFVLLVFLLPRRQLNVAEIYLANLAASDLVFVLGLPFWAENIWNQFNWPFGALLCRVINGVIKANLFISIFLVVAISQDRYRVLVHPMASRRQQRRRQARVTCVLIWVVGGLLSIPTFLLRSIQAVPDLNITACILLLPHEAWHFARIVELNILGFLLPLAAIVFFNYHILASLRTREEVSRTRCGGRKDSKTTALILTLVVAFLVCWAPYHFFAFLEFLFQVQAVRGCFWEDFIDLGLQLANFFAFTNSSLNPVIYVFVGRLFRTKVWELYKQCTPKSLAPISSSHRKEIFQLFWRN
Text: (§1) For example, FPA was used in a screen of 150 receptors to determine which receptors FPA could interact with. One way of assessing FPA interactions is to look at the amount that FPA can modulate a given receptor relative to its natural ligand. Disclosed in tables 13 and 14 are ligand-receptor binding studies that are, for example, modulated by more than 20% (inhibition or excitation) by the human form of Fibrinopeptide-A (FPA-h).

Cholecystokinin = experiment: Receptor panel screen, ligand-receptor binding, FPAh 10 μM: Cholecystokinin
Text: as §1

Estrogen ERa = target: T3, Estrogen ERa (Homo sapiens, UniProt P03372); experiment: Receptor panel screen, ligand-receptor binding, FPAh 10 μM: Estrogen ERa
T3 sequence (P03372 1-595): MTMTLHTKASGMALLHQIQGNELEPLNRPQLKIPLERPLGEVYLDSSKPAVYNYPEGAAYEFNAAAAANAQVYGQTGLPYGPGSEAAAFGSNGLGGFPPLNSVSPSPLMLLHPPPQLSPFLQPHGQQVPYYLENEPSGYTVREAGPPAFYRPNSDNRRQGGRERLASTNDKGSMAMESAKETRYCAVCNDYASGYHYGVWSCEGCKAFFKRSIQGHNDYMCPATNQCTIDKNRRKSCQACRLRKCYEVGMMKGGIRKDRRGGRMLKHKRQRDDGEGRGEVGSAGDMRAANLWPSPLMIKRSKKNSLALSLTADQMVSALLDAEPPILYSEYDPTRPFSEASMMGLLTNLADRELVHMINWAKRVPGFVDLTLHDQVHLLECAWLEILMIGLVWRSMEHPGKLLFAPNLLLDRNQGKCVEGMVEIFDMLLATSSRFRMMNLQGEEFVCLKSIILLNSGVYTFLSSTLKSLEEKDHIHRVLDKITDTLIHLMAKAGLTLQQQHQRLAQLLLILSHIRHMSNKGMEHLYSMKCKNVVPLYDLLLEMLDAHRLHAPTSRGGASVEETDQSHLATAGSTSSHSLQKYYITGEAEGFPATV
Text: as §1

[2] = tested on: Inositol Triphosphate IP3; experiment: Receptor panel screen, ligand-receptor binding, FPAh 10 μM: Inositol Triphosphate IP3
Text: as §1

Potassium Channel [Ka] = experiment: Receptor panel screen, ligand-receptor binding, FPAh 10 μM: Potassium Channel [Ka]
Text: as §1

[3] = target: T4, Thyrotropin Releasing Hormone (Homo sapiens, UniProt P34981); experiment: Receptor panel screen, ligand-receptor binding, FPAh 10 μM: Thyrotropin Releasing Hormone
T4 sequence (P34981 1-398): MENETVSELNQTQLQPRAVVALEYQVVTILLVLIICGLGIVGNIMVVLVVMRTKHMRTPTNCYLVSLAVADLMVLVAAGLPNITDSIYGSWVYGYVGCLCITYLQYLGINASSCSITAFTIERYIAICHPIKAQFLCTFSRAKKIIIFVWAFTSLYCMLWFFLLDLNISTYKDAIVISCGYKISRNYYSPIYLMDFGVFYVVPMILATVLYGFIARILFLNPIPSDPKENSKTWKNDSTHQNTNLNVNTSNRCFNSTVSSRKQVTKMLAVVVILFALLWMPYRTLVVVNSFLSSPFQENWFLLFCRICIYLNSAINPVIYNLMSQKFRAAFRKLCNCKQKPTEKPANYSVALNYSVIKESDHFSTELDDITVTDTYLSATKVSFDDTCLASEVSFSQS
Text: as §1

[4] = tested on: Vascular endothelial growth factor; experiment: Receptor panel screen, ligand-receptor binding, FPAh 10 μM: Vascular endothelial growth factor
Text: as §1

Glutamate AMPA = experiment: Receptor panel screen, ligand-receptor binding, FPAh 10 μM: Glutamate AMPA
Text: as §1

Serotonin 5-HT 2a = Serotonin 5-HT 2a (Homo sapiens, UniProt P28223); experiment: Receptor panel screen, ligand-receptor binding, FPAh 10 μM: Serotonin 5-HT 2a
Chain of Serotonin 5-HT 2a (P28223 whole entry): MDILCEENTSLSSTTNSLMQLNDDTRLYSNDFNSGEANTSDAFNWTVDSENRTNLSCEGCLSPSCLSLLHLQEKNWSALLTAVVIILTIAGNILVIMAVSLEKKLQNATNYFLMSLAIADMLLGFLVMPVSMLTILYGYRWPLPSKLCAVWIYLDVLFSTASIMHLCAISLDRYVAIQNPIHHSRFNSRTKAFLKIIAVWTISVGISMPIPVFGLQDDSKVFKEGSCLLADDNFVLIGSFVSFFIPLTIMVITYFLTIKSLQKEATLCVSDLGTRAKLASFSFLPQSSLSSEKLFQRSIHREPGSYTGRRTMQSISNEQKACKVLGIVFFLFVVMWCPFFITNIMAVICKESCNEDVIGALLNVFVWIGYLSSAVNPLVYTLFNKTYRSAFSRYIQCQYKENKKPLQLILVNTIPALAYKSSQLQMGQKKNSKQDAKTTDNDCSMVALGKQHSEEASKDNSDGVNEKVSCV
Text: as §1

Row | Molecule | % Inhibition ATII receptor [1] | Activity/inhibition ATII binding assay [1] | further results
1 | VP057 (RPP) | −2% |  | 
2 | VP043 (RPPGFS[dF]FR) | 9% |  | 
3 | ADSGE GDFLAEGGGVR (ADSGEGDFLAEGGGVR) [FPA-h, synthesized human Fibrinopeptide-A] |  |  | Inhibited (Bradykinin B1): 24%; Inhibited (Cholecystokinin): 33%; Inhibited (Estrogen ERa): 33%; Inhibited [2]: 33%; Inhibited (Potassium Channel [Ka]): 25%; Inhibited [3]: 23%; Stimulated [4]: 22%; Stimulated (Glutamate AMPA): 30%; Stimulated (Serotonin 5-HT 2a): 21%
4 | Arg-Pro-Pro-Gly-Phe-Ser-DPhe-Phe-Arg (RPPGFS[dF]FR) [DPhe7] Bradykinin] |  | 60 9% | 
5 | VP052 (RPPGFSPYR) | −1% |  | 
6 | VP064 (XRPXGXSXXR; D-residues; non-natural residues) | 70% |  | 
7 | N=C(N)NCCC[C@H](NC(=O)[C@H](Cc1cccs1)NC(=O)[C@@H](Cc1ccccc1)NC(=O)[C@H](CO)NC(=O)[C@H](Cc1cccs1)NC(=O)CNC(=O)[C@@H]1CCCN1C(=O)[C@@H]1CCCN1C(=O)[C@@H](N)CCCNC(=N)N)C(=O)O [VP045] (H-RPPG[2Thi]S[dF][2Thi]R-OH) |  |  | inhibition at 10 µM [1]: 53%
8 | DArg-Arg-Pro-Hyp-Gly-Igl-Ser-Dlgl-Oic-Arg (XRPXGXSXXR; D-residues; non-natural residues) [B9430] |  | 70% | 
9 | N-Admantanecarbonyl-DArg0-HyP3, Thi5,8, DPhe7] Bradykinin |  | 63% | 
10 | CC[C@H](C)[C@H](NC(=O)[C@@H]1CCCN1C(=O)[C@H](Cc1c[nH]cn1)NC(=O)[C@@H](NC(=O)[C@H](Cc1ccc(O)cc1)NC(=O)[C@@H](NC(=O)[C@H](CCCNC(=N)N)NC(=O)CNC)C(C)C)[C@@H](C)CC)C(=O)O [[Sar^1, Ile^8] Angiotensin II] |  |  | nH [1]: 1.0
11 | (DArg-Arg-Pro-Hyp-Gly-Thi-Ser-DTic-Oic-Arg (XRPXGXSXXR; D-residues; non-natural residues) [Hoe 140, reference compound] |  | 29% | 
12 | PPGFSP [Bradykinin (2-7)] |  | −6% | 
13 | Arg-Pro-Pro-Gly-Thi-Ser-DPhe-Thi-Arg (RPPG[2Thi]S[dF][2Thi]R) [[Thi5,8,DPhe7] Bradykinin] |  | 53% | 
14 | VP042 (XRPXGXSXXR; D-residues; non-natural residues) | 29% |  | 
15 | VP063 (XRPXGXSXXR; D-residues; non-natural residues) | 35% |  | 
16 | CNCC(=O)N[C@@H](CCCN=C(N)N)C(=O)N[C@H](C(=O)N[C@@H](Cc1ccc(O)cc1)C(=O)N[C@H](C(=O)N[C@@H](Cc1cnc[nH]1)C(=O)N1CCC[C@H]1C(=O)N[C@@H](C)C(=O)O)C(C)C)C(C)C [Saralasin] |  |  | nH [1]: 0.9
17 | VP059 (RPPGFS) | −12% |  | 
18 | DArg-Arg-Pro-Hyp-Gly-Thi-Ser-Dlgl Oic-Arg (XRPXGXSXXR; D-residues; non-natural residues) [B9340] |  | 35% | 
19 | Arg-Pro-Pro-Gly-Phe (RPPGF) [Bradykinin (1-5)] |  | 1% | 
20 | N-Adamantaneacetyl-DArg-Arg-Pro-Hyp-Gly-Thi-Ser-DPhe-Thi-Arg |  | 61% | 
21 | CC[C@H](C)[C@H](NC(=O)[C@@H]1CCCN1C(=O)[C@H](Cc1c[nH]cn1)NC(=O)[C@H](CCCCNC(=O)[C@H](CCCNC(=N)N)NC(=O)OCc1ccccc1)NC(=O)[C@H](Cc1ccc(O)cc1)NC(=O)c1cccnc1)C(=O)O [CGP-42112A, nicotinic acid-Tyr-(N-benzoylcarbonyl-Arg)Lys-His-Pro-Ile-OH, reference compound] (Nicotinoyl-YK([Arg-Cbz])HPI-OH) |  |  | nH [1]: 1.1
22 | PPGFSPFR [Bradykinin (2-9)] |  | −13% | 
23 | N=C(N)NCCC[C@H](NC(=O)[C@H](Cc1cccs1)NC(=O)[C@@H](Cc1ccccc1)NC(=O)[C@H](CO)NC(=O)[C@H](Cc1cccs1)NC(=O)CNC(=O)[C@@H]1C[C@@H](O)CN1C(=O)[C@@H]1CCCN1C(=O)[C@H](CCCNC(=N)N)NC(=O)[C@@H](CCCNC(=N)N)NC(=O)CC12CC3CC(CC(C3)C1)C2)C(=O)O [VP046] ({Acetyl(1-adamantyl)}-[dR]RP[Hyp]G[2Thi]S[dF][2Thi]R-OH) |  |  | inhibition at 10 µM [1]: 61%
24 | VP062 (PPGFSPFR) | −13% |  | 
25 | RPPGFS [Bradykinin (1-6)] |  | −12% | 
26 | Arg-Pro-Pro (RPP) [Bradykinin (1-3)] |  | −2% | 
27 | NC(N)=NCCC[C@H](NC(=O)[C@H](Cc1ccccc1)NC(=O)[C@@H]1CCCN1C(=O)[C@H](CO)NC(=O)[C@H](Cc1ccccc1)NC(=O)CNC(=O)[C@@H]1CCCN1C(=O)[C@@H]1CCCN1C(=O)[C@@H](N)CCCN=C(N)N)C(=O)O [Bradykinin] |  |  | Activity/inhibition ATII binding assay ([1]; 10 µM): 12%
28 | VP061 (PPGFSP) | −6% |  | 
29 | VP058 (RPPGF) | 1% |  | 
